Changes are numbered by the printed parent chain.
T1: KPC1Δ967-1043 (FLAG-tagged) (Homo sapiens (Human), UniProt Q5XPI4 1-1314)
T1 construct: also called KPC1 species vii
T1 sequence: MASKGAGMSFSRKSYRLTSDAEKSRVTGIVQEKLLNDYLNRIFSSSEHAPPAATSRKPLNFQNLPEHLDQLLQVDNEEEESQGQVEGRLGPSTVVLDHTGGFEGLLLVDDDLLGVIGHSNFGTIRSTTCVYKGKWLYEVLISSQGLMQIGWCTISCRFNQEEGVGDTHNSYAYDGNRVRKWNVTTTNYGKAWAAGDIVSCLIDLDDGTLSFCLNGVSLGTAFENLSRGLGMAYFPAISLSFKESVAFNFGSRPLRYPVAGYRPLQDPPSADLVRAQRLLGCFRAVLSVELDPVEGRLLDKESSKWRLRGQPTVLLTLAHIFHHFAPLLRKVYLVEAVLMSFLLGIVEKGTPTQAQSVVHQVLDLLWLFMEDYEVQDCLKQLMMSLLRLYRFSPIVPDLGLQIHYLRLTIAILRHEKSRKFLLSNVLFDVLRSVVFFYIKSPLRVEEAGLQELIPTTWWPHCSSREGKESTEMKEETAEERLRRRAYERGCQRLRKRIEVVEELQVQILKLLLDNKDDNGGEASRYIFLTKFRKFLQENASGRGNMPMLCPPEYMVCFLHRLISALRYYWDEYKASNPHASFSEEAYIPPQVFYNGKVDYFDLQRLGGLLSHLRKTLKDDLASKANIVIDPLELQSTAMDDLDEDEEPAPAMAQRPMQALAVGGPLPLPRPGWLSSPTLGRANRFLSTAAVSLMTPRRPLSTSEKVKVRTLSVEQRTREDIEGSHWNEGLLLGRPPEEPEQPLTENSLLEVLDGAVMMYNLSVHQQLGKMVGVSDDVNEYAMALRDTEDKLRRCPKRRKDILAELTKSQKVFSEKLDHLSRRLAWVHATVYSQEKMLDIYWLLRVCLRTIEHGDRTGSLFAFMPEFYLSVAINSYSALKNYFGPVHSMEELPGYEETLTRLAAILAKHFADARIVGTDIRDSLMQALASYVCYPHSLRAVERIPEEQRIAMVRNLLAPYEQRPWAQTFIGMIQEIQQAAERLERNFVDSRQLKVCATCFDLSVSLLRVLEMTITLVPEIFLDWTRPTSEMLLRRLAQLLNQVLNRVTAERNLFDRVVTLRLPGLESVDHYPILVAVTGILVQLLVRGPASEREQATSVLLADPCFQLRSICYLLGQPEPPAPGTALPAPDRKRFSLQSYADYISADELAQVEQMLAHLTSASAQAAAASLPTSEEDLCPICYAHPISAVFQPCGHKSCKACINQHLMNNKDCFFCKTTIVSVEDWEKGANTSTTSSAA

B1: KPC1Δ1-1017 (FLAG-tagged) (enzyme)
chain: LLQQGPDVAPSFLNSVLNQLNWAFSEFIGMIQEIQQAAERLERNFVDSRQLKVCATCFDLSVSLLRVLEMTITLVPEIFLDWTRPTSEMLLRRLAQLLNQVLNRVTAERNLFDRVVTLRLPGLESVDHYPILVAVTGILVQLLVRGPASEREQATSVLLADPCFQLRSICYLLGQPEPPAPGTALPAPDRKRFSLQSYADYISADELAQVEQMLAHLTSASAQAAAASLPTSEEDLCPICYAHPISAVFQPCGHKSCKACINQHLMNNKDCFFCKTTIVSVEDWEKGANTSTTSSAA
notes: Lacks amino acids 1-1017; also called KPC1 species x
B2: VRLW-KPC1 Δ 1-1253 (enzyme)
chain: VRLWCPICYAHPISAVFQPCGHKSCKACINQHLMNNKDCFFCKTTIVSVEDWEKGANTSTTSSAA
notes: also called KPC1 species xiv
B3: WILV-KPC1 Δ 1-1253 (enzyme)
chain: B2 chain with V1W, R2I, W4V
notes: also called KPC1 species xix
B4: RLW-KPC1 Δ 1-1253 (enzyme)
chain: RLWCPICYAHPISAVFQPCGHKSCKACINQHLMNNKDCFFCKTTIVSVEDWEKGANTSTTSSAA
notes: also called KPC1 species xv
B5: WIL-KPC1 Δ 1-1253 (enzyme)
chain: B4 chain with R1W, L2I, W3L
notes: also called KPC1 species xx
B6: ILVRLW-KPC1 Δ 1-1253 (enzyme)
chain: ILVRLWCPICYAHPISAVFQPCGHKSCKACINQHLMNNKDCFFCKTTIVSVEDWEKGANTSTTSSAA
notes: also called KPC1 species xii
B7: WILVRL-KPC1 Δ 1-1253 (enzyme)
chain: B6 chain with I1W, L2I, V3L, R4V, L5R, W6L
notes: also called KPC1 species xvii
B8: KPC1Δ1-973 (FLAG-tagged) (enzyme)
chain: WRGCGFGYRYTRLPHLLKTKLEDANLPSLQKPCPSTLLQQHMADLLQQGPDVAPSFLNSVLNQLNWAFSEFIGMIQEIQQAAERLERNFVDSRQLKVCATCFDLSVSLLRVLEMTITLVPEIFLDWTRPTSEMLLRRLAQLLNQVLNRVTAERNLFDRVVTLRLPGLESVDHYPILVAVTGILVQLLVRGPASEREQATSVLLADPCFQLRSICYLLGQPEPPAPGTALPAPDRKRFSLQSYADYISADELAQVEQMLAHLTSASAQAAAASLPTSEEDLCPICYAHPISAVFQPCGHKSCKACINQHLMNNKDCFFCKTTIVSVEDWEKGANTSTTSSAA
notes: also called KPC1 species ix
B9: LVRLW-KPC1 Δ 1-1253 (enzyme)
chain: LVRLWCPICYAHPISAVFQPCGHKSCKACINQHLMNNKDCFFCKTTIVSVEDWEKGANTSTTSSAA
notes: also called KPC1 species xiii
B10: WILVR-KPC1 Δ 1-1253 (enzyme)
chain: B9 chain with L1W, V2I, R3L, L4V, W5R
notes: also called KPC1 species xviii
B11: KPC1 Δ 1-1253 (enzyme)
chain: CPICYAHPISAVFQPCGHKSCKACINQHLMNNKDCFFCKTTIVSVEDWEKGANTSTTSSAA
notes: also called KPC1 species xvi
B12: KPC1Δ1-1042 (FLAG-tagged) (enzyme)
chain: EFIGMIQEIQQAAERLERNFVDSRQLKVCATCFDLSVSLLRVLEMTITLVPEIFLDWTRPTSEMLLRRLAQLLNQVLNRVTAERNLFDRVVTLRLPGLESVDHYPILVAVTGILVQLLVRGPASEREQATSVLLADPCFQLRSICYLLGQPEPPAPGTALPAPDRKRFSLQSYADYISADELAQVEQMLAHLTSASAQAAAASLPTSEEDLCPICYAHPISAVFQPCGHKSCKACINQHLMNNKDCFFCKTTIVSVEDWEKGANTSTTSSAA
notes: also called KPC1 species v
B13: p105-HA (other, UniProt P19838 1-968, looked up)
chain: MAEDDPYLGRPEQMFHLDPSLTHTIFNPEVFQPQMALPTDGPYLQILEQPKQRGFRFRYVCEGPSHGGLPGASSEKNKKSYPQVKICNYVGPAKVIVQLVTNGKNIHLHAHSLVGKHCEDGICTVTAGPKDMVVGFANLGILHVTKKKVFETLEARMTEACIRGYNPGLLVHPDLAYLQAEGGGDRQLGDREKELIRQAALQQTKEMDLSVVRLMFTAFLPDSTGSFTRRLEPVVSDAIYDSKAPNASNLKIVRMDRTAGCVTGGEEIYLLCDKVQKDDIQIRFYEEEENGGVWEGFGDFSPTDVHRQFAIVFKTPKYKDINITKPASVFVQLRRKSDLETSEPKPFLYYPEIKDKEEVQRKRQKLMPNFSDSFGGGSGAGAGGGGMFGSGGGGGGTGSTGPGYSFPHYGFPTYGGITFHPGTTKSNAGMKHGTMDTESKKDPEGCDKSDDKNTVNLFGKVIETTEQDQEPSEATVGNGEVTLTYATGTKEESAGVQDNLFLEKAMQLAKRHANALFDYAVTGDVKMLLAVQRHLTAVQDENGDSVLHLAIIHLHSQLVRDLLEVTSGLISDDIINMRNDLYQTPLHLAVITKQEDVVEDLLRAGADLSLLDRLGNSVLHLAAKEGHDKVLSILLKHKKAALLLDHPNGDGLNAIHLAMMSNSLPCLLLLVAAGADVNAQEQKSGRTALHLAVEHDNISLAGCLLLEGDAHVDSTTYDGTTPLHIAAGRGSTRLAALLKAAGADPLVENFEPLYDLDDSWENAGEDEGVVPGTTPLDMATSWQVFDILNGKPYEPEFTSDDLLAQGDMKQLAEDVKLQLYKLLEIPDPDKNWATLAQKLGLGILNNAFRLSPAPSKTLMDNYEVSGGTVRELVEALRQMGYTEAIEVIQAASSPVKTTSQAHSLPLSPASTRQQIDELRDSDSVCDSGVETSFRKLSFTESLTSGASLLTLNKMPHDYGQEGPLEGKI
notes: Co-expressed with FLAG-tagged KPC1 species in HEK293T cells and detected with anti-NF-κB1 after anti-FLAG immunoprecipitation; also called NF-κB1 p105; NF-kB1 p105; not shown: HA tag

biological target: B13; test: co-immunoprecipitation (anti-FLAG) from HEK293T cells, western blot
Procedure: (§1) HEK293T cells were transiently transfected with the various KPC1 species along with p105-HA using the j etPEI reagent. 48 hours after transfection, the cells were harvested and lysed with RIPA buffer [150 mM NaCl, 0.5% sodium deoxycholate, 50 mM Tris-HCl (pH 8.0), 0.1% SDS, and 1% NP-40, supplemented with freshly added protease inhibitors mixture]. KPC1 species proteins were immunoprecipitated with immobilized anti-FLAG, with subsequent washing of the beads five times with RIPA buffer. The immunoprecipitated proteins were resolved by SDS-PAGE (10%, FIGS. 1A, 1B, 2A and 2B, with a gel gradient, of 4-20%; FIGS. 3A and 3B), and blotted onto nitrocellulose (FIGS. 1A, 1B, 2A and 2B) or PVDF (FIGS. 3A and 3B) membranes. p105 and KPC1 species were visualized using anti-NF-kB1 or anti-FLAG antibodies, respectively.
(§2) Identification of the region of KPC1 that is responsible for the interaction with p105. In order to identify the region of KPC1 that is responsible for the interaction with p105, several truncated segments of the DNA sequence of the KPC1 protein were cloned. The truncated segments were inserted into the pCAGGS expression vector to analyze their interaction with p105 by co-immunoprecipitation (Co-IP) from cells. HEK 293T cells were transfected with cDNAs coding for p105-HA, along with different fragments of KPC1 (FIG. 1A). Species of KPC1 were immunoprecipitated using an immobilized anti-Flag antibody. The precipitated proteins were resolved via SDS-PAGE and detected by Western blot using anti NF-κB1 and anti-FLAG antibodies.

binding result | Binder
no binding | B1
no binding | B2
no binding | B3
no binding | B4
no binding | B5
no binding | B6
no binding | B7
no binding | B8
no binding | B9
no binding | B10
no binding | B11
no binding | B12

biological target: T1, KPC1Δ967-1043 (FLAG-tagged); test: as above
Procedure: as §1, §2

binding result | Binder
no binding | B13
